Results published in the nanobody polyreactivity screen of Harvey et al. (2022).

test: yeast display, Sf9 membrane polyspecificity reagent, FACS + sequencing; frameworks hold sequencing errors
Outline: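 A nanobody's polyreactivity label depends on the gate it was sorted from. Yeast display cells were stained with 10% biotinylated, detergent-solubilized Sf9 membrane reagent for 1 hour at 4 °C, enriched on streptavidin microbeads and sorted by FACS. The low and high (top ~1%) gates were set on anti-HA fluorescence for expression and streptavidin fluorescence for reagent binding.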

Row | Sequence | polyreactivity (PSR sort gate)
1 | QVQIVESGGGLVQAGGSLRLSCAASGSTSYRYAMGWYRQATGQERALVAAIPWISDSTYYADSVKGRFTISRDNAKNTVYLQMNSLKPEDTAVYYCNTDPLVTSVTFNYWGQGTQVTVSS | low polyreactivity
2 | QVQIVESGGGLVQAGGSLRLSCAASGYTFVENAMGWYRQAPGKERELVAAISNGTITYYADSVKGRFTISRDNAKNTVYLQMNSLKPEDTAVYYCADYEYWGQGTQVTVSS | low polyreactivity
3 | QVQIVESGGGLVQAGGSLRLSCADSGSTRIYAMGWYRQAPGKERELVAAISWSGGRTYYADSVKGRFTISRDNAKNTVYLQMNSLKPEDTAVYYCAAKGSGRDYWGQGTQVTVSS | high polyreactivity
4 | QVQIVESGGGLVQAGGSLRLSCAPSGRTFVGFAKGWYRQAPGKERELVAAISRTGGSTYYADSVKGRFTISRDNAKNTVYLQMNSLKPEDTAVYYCNAVTLSSTYGGHDYWGQGTQVTVSS | high polyreactivity
5 | QVQIVESGGGLVQAGGSLRLSCASSGSTFVSYDMGWYRQAPGKERELVADISWSGVSTYADSVKGRFTISRDNAMNTVYLQMNSLKPEDTAVYYCAKDSDLYQRGGYYWGQGTQVTVSS | low polyreactivity
6 | QVQIVESGGGLVQAGGSLRLSCDASGFTFFKYAMGWYRHAPGKERELVATISIDCITNYADSVKGRFTISRDNAKNTVYLQMNSLKPEDTAVYYCNARSLYQQLGYWGQGTQVTVSS | low polyreactivity
7 | QVQIVESGGGLVQAGGSLRLSCPASGRIFYNNAMGWYRPAPGKERELVAAINWSGGSTYYADSVKGRFTISRDNAKNTVYLQMNSLKPEDTAVYYCNADPHGYYGYGYDYWGQGTQVTVSS | low polyreactivity
8 | QVQIVESGGGLVQAGGSLRLSCPASGSTFSRYAMGWYRQAPGKERELVAAISWSGGRTYYADSVKGRFTISRDYATNTVYLLMNSLKPEDTAVYYCAARKLVVILREEYWVQGTQVTVSS | high polyreactivity
9 | QVQIVESGGGLVQAGGSLRLSSAASGSIFPAYAMGWYSLAPWKERELVASITGSGGTTYYADSVKGRFTISRDNAKNTGYLQMNSLKPVDTADNYCNARYYVYSATVDRYGYWGQGSQVTVSS | high polyreactivity
10 | QVQIVESGGGLVQAGGSLRLTCAASGFIFSRYAMGWYRQAPAKERELVAAITSGGRTNYADSVKGRFTISRDNAKNTVYLQMNRLKPEDTAVYYCSGAFYPFWPRYTSDYWGQGTQVTVSS | high polyreactivity
11 | QVQIVESGGGLVQAGGSLRLTCAASGLISTYYVMGWYRQAPGKERELVAAIRASDASTYYADSVKGRFTISRDNAKNTVYLQMNSLKPEDTAVYYCATDSYYVDDTEYDYWGQGTQVTVSS | low polyreactivity
12 | QVQIVESGGGLVQAGGSLRLTCAASGSIFGYYAMGWYRQAPGKERELVAAITTGGSTSYADSVKGRFTISRDNAKKTVYLQMNSLKPEDTAVYYCNARFKLLFGRADDYWGQGTQVTVSS | low polyreactivity
13 | QVQIVESGGGLVQAGGSLRVSCAASGSIFKIYAMGWYRQAPGKERELVASITGSGGSTYYADSVKGRFTISRDNAKNTVYLQMNSLKPEDTAVYYCAAAVLGSSTSEVDPDRPEYYYWGHGTQVTVSS | low polyreactivity
14 | QVQIVESGGGLVQAGGSLRVSCAASGSTFAVYAMGWYRQAPGKEREMVAAISQSGGSTNYADSVKGRFTISRDNAKNTVYLQMNSLKPEDTAVYYCNVDVSRSWAQPYTYDYWGHGTQVTVSS | low polyreactivity
15 | QVQIVESGGGLVQAGGSVRLSCAASGRTFYYNAMGWYRQAPGKERELVASISSSDSDTYYADSVKGRFTISRDNAKNTVYLQMNSLKPEDTAVYYCAAEYYWDLTFTRYDYWGQGTQVTVSS | low polyreactivity
16 | QVQIVESGGGLVQAGGTLRLSCAASGLTFAYYDMGWYSQAPGKERELVAAITSVGTTNYADSVKGRFSISRDNSKNTVYLKMNSLKPEDTAVYYCNADYFSRIVGDRIYDYCGQGTQVTVSS | low polyreactivity

Row | Sequence | polyreactivity (PSR sort gate)
17 | QVQIVESGGGLVQAGVSLRISCAASGSTFADYTMGWYRQAPGKERELVAAISQSGARTYYADSVKGRFTISRDNAKNTVYLQMNSLKPEDTAVYYCAATKAASGPYFRYYYWGQGTQVTVSS | high polyreactivity
18 | QVQIVESGGGLVQARGSLRLSCAASGRTFYGYALGWYRQAPGKERELVASIRSRTGSTYYADSVKGRFTISRDNAKNTVYLLMNILKPEDTAVYYCARPYYAKGFAFDYWGLGTQVTVSS | high polyreactivity
19 | QVQIVESGGGLVQARGSLRLSFAASGFTFSHYAMGWYRQAPGKERELVAAISASGGRTYFADSVKGRFTISRDNAKNTVYVQMNSLKPEDTAVYYCAAKLYDCGGRYWYVYWGQGTQVTVSS | high polyreactivity
20 | QVQIVESGGGLVQGGGSLRLSCAASGSIFGGNAMGWYRQAPGKERELVATITVRGGSTYNADSVKGRFTISRDNAKNTVYLQMNSLKPEDTAVYYCAARGVYLLPKYDYWGQGTQVTVSS | low polyreactivity
21 | QVQIVESGGGSVQAGGSLRLSCADSGFTFRKNAMGWYRQAPGKERELVAAISVSGGRTYYADSVKVRFTISRDNAKNTFYLQMNSLKPEETAVYYCAARRYVLVHKYDYWGQGTQVTVSS | high polyreactivity
22 | QVQIVESGGVLVQAGGSLRLSCAASGLTLKRYAMGWYRQAPRKERELVASITGSGGSTYADTVKARFTISRDNAKNTVYLHMNSLNPEDTAVYYCAKDTRYEYVGSEYCFWGQGTQVTVSS | low polyreactivity
23 | QVQIVESGRGLFQAGGSLRISCPASGYIFLANAMGLYRQAPGKERELVAAITSGGGGTYYADSVKARFTISGDNAKNPVYLLMNTLKPEDTAVYHCAADHGRDGSSIEYWGHGTQVTVSS | low polyreactivity
24 | QVQIVESGRGLVQAGGSLRLSCAPSGRIFIYNAMGWYIQAPGKERELVAAISWRGGRTYYADSVKGRFTISRDNAKNTVYLQMNRLKPEDTAVYYCNAEPYGYERLYDYWGQGTQVNVSS | high polyreactivity
25 | QVQIVESRGGLVQAGGSLRLSCAASGSNLHYYTMGWYRQAPGNEREFVAGISWSGGRTYYADSVKGRFTISRDNAKNTVYFQMNSRKPEDTAVYYCNRQARRGFHRYHLYGYGYWGQGTQVTVSS | high polyreactivity
26 | QVQIVESVGGLVQAGGSLRLSCAASGSTFWFTDMGWYRQAPGKERELVAVITWTGGSTSYADSVKGRFTISRDNAKNTDYLQMKCLNAEDTADYYCDTPVKFGGVPYRYGYWGQGTEVTVSS | low polyreactivity
27 | QVQIVETGGGLVQAGGSLRLSCAASGSIFSAYVMGWYRQAPGKERELVAAITRTGGRTYYADSVKGRFTISRDNAKNTVYLQMNSLKPEDTAVYYCAKEAITRTFPYRHEYWGQGTQVTVSS | low polyreactivity
28 | QVQIVETGGGLVQAGGSLRLSCEASGSTFRNYAMGWYRQATGKERELDAAISSGGSTNYADSVKGRFTISRDNAKNTVFLQMNSLKPEYTAVYYCAAKAWYYPGSRIYYQYYYWGQGTQVTVSS | high polyreactivity
29 | QVQLAESGGALVQAGCSLRLSCSASGYTSAKNVMGWYIQAPGKERELVAAISRSGGRTYYADSVKGRFTISRDNAKNSVYLQMNSLKPEDTAVYYCAARSATNHADDYYYWGQGTQVTVSS | high polyreactivity
30 | QVQLAESGGGLVQAGGSLRLSCAASGSTFVSYAMGWYRQAPGKERELVAAIDWSGGNTDYADSVKGRFTISRDNAKNTVYLQMNSLKPEDTAVYYCNADSWPRRGYDYWGQGTQVTVSS | low polyreactivity
31 | QVQLAESGGGLVQAGGSLRLSCAASGSTFVWYAMGWYRQAPGKEWELVAVIDWSGGSTSYADSVKGRFTISRDNAKNTVYFQMNSLKPEDTAVYYCAADYGHYYGLYYWGQGTQVTVSS | low polyreactivity
32 | QVQLDESGGGLVQAGGSLRLRCAASGFIFVSYAMGWYRQAPGKERELVAAISRGGGSTYYADSVKGRFTISRDNAKNTVYLQMNSLKPEDTAVYYCAAGRFYIDDYWGQGTQVTVSS | high polyreactivity
